Experimental data as given in US20160039904A1, “STABILIZED SINGLE HUMAN CD4 DOMAINS AND FUSION PROTEINS” (priority 2013, published 2016).

Columns and labels:
[1] = biological target: HIV-1 Env of isolate CM240.EC1 (HIV-1); test: cell-based or functional assay
[2] = biological target: HIV-1 Env of isolate AE03 (HIV-1); test: cell-based or functional assay
[3] = biological target: HIV-1 Env of isolate CNE57 (HIV-1); test: cell-based or functional assay
[4] = biological target: HIV-1 Env of isolate CNE1 (HIV-1); test: cell-based or functional assay
[5] = biological target: HIV-1 Env of isolate YN192.31 (HIV-1); test: cell-based or functional assay
[6] = biological target: HIV-1 Env of isolate PBL286.VRC36aPV (HIV-1); test: cell-based or functional assay
[7] = biological target: HIV-1 Env of isolate CNE3 (HIV-1); test: cell-based or functional assay
[8] = biological target: HIV-1 Env of isolate N1 1046.e3 PV (HIV-1); test: cell-based or functional assay
[9] = biological target: HIV-1 Env of isolate CNE59 (HIV-1); test: cell-based or functional assay
[10] = biological target: HIV-1 Env of isolate KNH1088.EC5 (HIV-1); test: cell-based or functional assay
[11] = biological target: HIV-1 Env of isolate Bal.EC1 TC (HIV-1); test: cell-based or functional assay
[12] = biological target: HIV-1 Env of isolate CH117 (HIV-1); test: cell-based or functional assay
[13] = biological target: HIV-1 Env of isolate CNE20 (HIV-1); test: cell-based or functional assay
[14] = biological target: HIV-1 Env of isolate CNE66 (HIV-1); test: cell-based or functional assay
[15] = biological target: HIV-1 Env of isolate CNE30 (HIV-1); test: cell-based or functional assay
[16] = biological target: HIV-1 Env of isolate CH64 (HIV-1); test: cell-based or functional assay
[17] = biological target: HIV-1 Env of isolate CNE17 (HIV-1); test: cell-based or functional assay
[18] = biological target: HIV-1 Env of isolate A07412VRC12A (HIV-1); test: cell-based or functional assay
[19] = biological target: HIV-1 Env of isolate CNE65 (HIV-1); test: cell-based or functional assay
[20] = biological target: HIV-1 Env of isolate CNE5 (HIV-1); test: cell-based or functional assay
[21] = biological target: HIV-1 Env of isolate CNE46 (HIV-1); test: cell-based or functional assay
[22] = biological target: HIV-1 Env of isolate CNE14 (HIV-1); test: cell-based or functional assay
[23] = biological target: HIV-1 Env of isolate AE20 (HIV-1); test: cell-based or functional assay
[24] = biological target: HIV-1 Env of isolate CNE58 (HIV-1); test: cell-based or functional assay
[25] = biological target: HIV-1 Env of isolate 55815.EC3 (HIV-1); test: cell-based or functional assay
[26] = biological target: HIV-1 Env of isolate GX2010.36 (HIV-1); test: cell-based or functional assay
[27] = biological target: HIV-1 Env of isolate CNE49 (HIV-1); test: cell-based or functional assay
[28] = biological target: HIV-1 Env of isolate CH120 (HIV-1); test: cell-based or functional assay
[29] = biological target: HIV-1 Env of isolate CNE107 (HIV-1); test: cell-based or functional assay
[30] = biological target: HIV-1 Env of isolate CNE53 (HIV-1); test: cell-based or functional assay
[31] = biological target: HIV-1 Env of isolate GS-015.EC12 (HIV-1); test: cell-based or functional assay
[32] = biological target: HIV-1 Env of isolate CH110 (HIV-1); test: cell-based or functional assay
[33] = biological target: HIV-1 Env of isolate CNE15 (HIV-1); test: cell-based or functional assay
[34] = biological target: HIV-1 Env of isolate CNE16 (HIV-1); test: cell-based or functional assay
[35] = biological target: HIV-1 Env of isolate CNE40 (HIV-1); test: cell-based or functional assay
[36] = biological target: HIV-1 Env of isolate 57128.VRC18 (HIV-1); test: cell-based or functional assay
[37] = biological target: HIV-1 Env of isolate CNE11 (HIV-1); test: cell-based or functional assay
[38] = biological target: HIV-1 Env of isolate CH114 (HIV-1); test: cell-based or functional assay
[39] = biological target: HIV-1 Env of isolate CNE23 (HIV-1); test: cell-based or functional assay
[40] = biological target: HIV-1 Env of isolate CNE64 (HIV-1); test: cell-based or functional assay
[41] = biological target: HIV-1 Env of isolate CAM0015BBY.EC3 (HIV-1); test: cell-based or functional assay
gp140Con-s (HIV-1) = test: ELISA (OD 450 nm) on Cons gp140 (gp140Con-s), sCD4Fc titrated [A]

## D1D2Fc (from UniProt P01730 26-203) (Fc fusion)
[1]
  IC50, neutralization in TZM-bl cell-based assay: 20 nM
  IC90, neutralization in TZM-bl cell-based assay: > 250 nM
[2]
  neutralization IC50: > 250 nM
  neutralization IC90: > 250 nM
[3]
  neutralization IC50: 250 nM
  neutralization IC90: > 250 nM
[4]
  neutralization IC50: 197 nM
  neutralization IC90: > 250 nM
[5]
  neutralization IC50: 155 nM
  neutralization IC90: > 250 nM
[6]
  IC50, neutralization in TZM-bl cell-based assay: 87 nM
  IC90, neutralization in TZM-bl cell-based assay: > 250 nM
[7]
  neutralization IC50: > 250 nM
  neutralization IC90: > 250 nM
[8]
  IC50, neutralization in TZM-bl cell-based assay: 183 nM
  IC90, neutralization in TZM-bl cell-based assay: > 250 nM
[9]
  neutralization IC50: 10 nM
  neutralization IC90: 220 nM
[10]
  IC50, neutralization in TZM-bl cell-based assay: > 250 nM
  IC90, neutralization in TZM-bl cell-based assay: > 250 nM
[11]
  IC50, neutralization in TZM-bl cell-based assay: 0.6 nM
[12]
  neutralization IC50: 27 nM
  neutralization IC90: > 250 nM
[13]
  neutralization IC50: 65 nM
  neutralization IC90: > 250 nM
[14]
  neutralization IC50: 159 nM
  neutralization IC90: > 250 nM
[15]
  neutralization IC50: 17 nM
  neutralization IC90: 211 nM
[16]
  neutralization IC50: 48 nM
  neutralization IC90: > 250 nM
[17]
  neutralization IC50: 11 nM
  neutralization IC90: 231 nM
[18]
  IC50, neutralization in TZM-bl cell-based assay: 57 nM
  IC90, neutralization in TZM-bl cell-based assay: > 250 nM
[19]
  neutralization IC50: 15 nM
  neutralization IC90: 115 nM
[20]
  neutralization IC50: 94 nM
  neutralization IC90: 236 nM
[21]
  neutralization IC50: 99 nM
  neutralization IC90: > 250 nM
[22]
  neutralization IC50: 105 nM
  neutralization IC90: 248 nM
[23]
  neutralization IC50: 50 nM
  neutralization IC90: > 250 nM
[24]
  neutralization IC50: > 250 nM
  neutralization IC90: > 250 nM
[25]
  IC50, neutralization in TZM-bl cell-based assay: 6.2 nM
  IC90, neutralization in TZM-bl cell-based assay: 116 nM
[26]
  neutralization IC50: 12 nM
  neutralization IC90: > 250 nM
[27]
  neutralization IC50: 21 nM
  neutralization IC90: 224 nM
[28]
  neutralization IC50: 104 nM
  neutralization IC90: > 250 nM
[29]
  neutralization IC50: 135 nM
  neutralization IC90: > 250 nM
[30]
  neutralization IC50: 14 nM
  neutralization IC90: > 250 nM
[31]
  IC50, neutralization in TZM-bl cell-based assay: 0.2 nM
[32]
  neutralization IC50: 28 nM
  neutralization IC90: > 250 nM
[33]
  neutralization IC50: 106 nM
  neutralization IC90: > 250 nM
[34]
  neutralization IC50: 11 nM
  neutralization IC90: 229 nM
[35]
  neutralization IC50: 0.06 nM
  neutralization IC90: 0.5 nM
[36]
  IC90, neutralization in TZM-bl cell-based assay: 41 nM
[37]
  neutralization IC50: > 250 nM
  neutralization IC90: > 250 nM
[38]
  neutralization IC50: 23 nM
  neutralization IC90: 198 nM
[39]
  neutralization IC50: > 250 nM
  neutralization IC90: > 250 nM
[40]
  neutralization IC50: 12 nM
  neutralization IC90: 113 nM
[41]
  IC50, neutralization in TZM-bl cell-based assay: 41 nM
  IC90, neutralization in TZM-bl cell-based assay: > 250 nM
gp140Con-s (HIV-1)
  EC50 (read off the curve): 1 nM
